Laboratory results taken from US20050202440A1.

Biological target: androgen receptor ligand binding domain (AR LBD) bound with DHT (chimp construct; LBD sequence stated identical to human)
Assay: X-ray cocrystal structure; surface area buried from both molecules on binding

Sequence of androgen receptor ligand binding domain (AR LBD) bound with DHT (chimp construct; LBD sequence stated identical to human) (P10275 whole entry, the tested form may be a part): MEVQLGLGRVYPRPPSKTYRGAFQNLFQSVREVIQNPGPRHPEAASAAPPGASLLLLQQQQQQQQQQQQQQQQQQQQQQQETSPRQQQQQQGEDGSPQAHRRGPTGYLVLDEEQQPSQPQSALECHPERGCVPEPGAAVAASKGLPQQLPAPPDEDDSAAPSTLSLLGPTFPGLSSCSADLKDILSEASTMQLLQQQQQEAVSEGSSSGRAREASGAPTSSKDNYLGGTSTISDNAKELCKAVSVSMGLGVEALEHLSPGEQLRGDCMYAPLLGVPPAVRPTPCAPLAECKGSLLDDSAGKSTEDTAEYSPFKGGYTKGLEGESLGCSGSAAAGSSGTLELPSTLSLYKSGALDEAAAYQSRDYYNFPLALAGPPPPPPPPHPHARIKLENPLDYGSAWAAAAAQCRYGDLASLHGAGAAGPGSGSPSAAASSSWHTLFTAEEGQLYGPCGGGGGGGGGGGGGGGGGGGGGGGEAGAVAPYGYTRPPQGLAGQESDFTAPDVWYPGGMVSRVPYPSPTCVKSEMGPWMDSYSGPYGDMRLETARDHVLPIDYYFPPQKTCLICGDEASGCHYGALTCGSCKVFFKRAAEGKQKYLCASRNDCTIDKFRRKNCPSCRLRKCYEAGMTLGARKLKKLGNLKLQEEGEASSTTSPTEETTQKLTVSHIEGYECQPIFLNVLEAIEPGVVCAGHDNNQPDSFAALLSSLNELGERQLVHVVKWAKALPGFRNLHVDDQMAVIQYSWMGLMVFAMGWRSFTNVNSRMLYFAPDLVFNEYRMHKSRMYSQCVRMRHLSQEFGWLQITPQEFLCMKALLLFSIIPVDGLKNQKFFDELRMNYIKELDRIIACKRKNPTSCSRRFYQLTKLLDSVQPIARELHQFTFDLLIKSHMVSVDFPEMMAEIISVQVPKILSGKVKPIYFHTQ

| Binder | buried surface area |
| --- | --- |
| SSRFESLFAGEKESR [coactivator-related peptide CRP-3] | 1020 A^2 |
| SSKFAALWDPPKLSR [coactivator-related peptide CRP-4] | 930 Å^2 |
| SRWQALFDDGTDTSR [coactivator-related peptide CRP-2] | 963 Å^2 |
| SSRGLLWDLLTKDSR [coactivator-related peptide CRP-1] | 987 A^2 |

More lines, now with the values ahead:

| buried surface area | Binder |
| --- | --- |
| 1230 Å^2 | SSNTPRFKEYFMQSR [coactivator-related peptide CRP-6] |
| 920 Å^2 | SRFADFFRNEGLSGSR [coactivator-related peptide CRP-5] |
| 882 Å^2 | SRWAEVWDDNSKVSR [coactivator-related peptide CRP-7] |
